“And” between values parts separate entries of the source, which are not always exact repeats. Equal entries are not always repeated.
Legend:
[1] = target: secreted truncated recombinant human thyroid peroxidase (hTPO-M1) (human) (UniProt P07202); assay: competition ELISA on secreted TPO; competitor: serum IgG2 TPO autoantibody, third patient; parameters: concentration or dose not given beside the values
[2] = target: secreted truncated recombinant human thyroid peroxidase (hTPO-M1) (human) (UniProt P07202); assay: competition ELISA on secreted TPO; competitor: serum IgG4 TPO autoantibody, first patient; parameters: concentration or dose not given beside the values
[3] = target: secreted truncated recombinant human thyroid peroxidase (hTPO-M1) (human) (UniProt P07202); assay: competition ELISA on secreted TPO; competitor: serum IgG1 TPO autoantibody, second patient; parameters: concentration or dose not given beside the values
[4] = target: secreted truncated recombinant human thyroid peroxidase (hTPO-M1) (human) (UniProt P07202); assay: competition ELISA on secreted TPO; competitor: serum IgG1 TPO autoantibody, first patient; parameters: concentration or dose not given beside the values
[5] = target: secreted truncated recombinant human thyroid peroxidase (hTPO-M1) (human) (UniProt P07202); assay: Scatchard analysis; unlabeled TPO competing with 125I-TPO for the Fab
[6] = target: secreted truncated recombinant human thyroid peroxidase (hTPO-M1) (human) (UniProt P07202); assay: Scatchard analysis; 125I-TPO with unlabeled TPO, anti-kappa/Sac-cel precipitation
[7] = target: secreted truncated recombinant human thyroid peroxidase (hTPO-M1) (human) (UniProt P07202); assay: competition ELISA on secreted TPO; competitor: serum IgG4 TPO autoantibody, second patient; parameters: concentration or dose not given beside the values
[8] = target: secreted truncated recombinant human thyroid peroxidase (hTPO-M1) (human) (UniProt P07202); assay: Scatchard analysis, 125I-TPO
[9] = target: secreted truncated recombinant human thyroid peroxidase (hTPO-M1) (human) (UniProt P07202); assay: confluent plaque lysis assay; competition of unlabeled TPO with 125I-TPO, densitometry
[10] = target: secreted truncated recombinant human thyroid peroxidase (hTPO-M1) (human) (UniProt P07202); assay: competition ELISA on secreted TPO; competitor: serum lambda TPO autoantibodies (4 sera)
[11] = target: secreted truncated recombinant human thyroid peroxidase (hTPO-M1) (human) (UniProt P07202); assay: competition with serum TPO autoantibodies (5 sera); Protein A precipitation
[12] = target: secreted truncated recombinant human thyroid peroxidase (hTPO-M1) (human) (UniProt P07202); assay: competition with serum TPO autoantibodies (11 sera); SP1.2 10^-10 to 10^-7 M; Protein A precipitation
CHO-TPO12b cells = assay: Radiolabeled D-glucosamine incorporation into proteins, control experiment; type: cell-based, Chinese hamster; conditions: tunicamycin treatment under similar conditions (0.5 μg/ml, 20 hours); mean±S.D.; n=3
Procedure: Human TPO contains 5 potential glycosylation sites. It was therefore examined whether carbohydrate moieties are important in the conformation of the epitope(s) in the human TPO antigen(s) recognized by Hashimoto's sera. Western blot analyses were performed on proteins extracted from CHO-TPO12b cells pre-cultured for 20 hours in 0.5 μg/ml tunicamycin, an inhibitor of protein glycosylation. This length of time was chosen because it was the longest tolerated without evidence of significant toxicity (i.e., cell loss). […] In a control experiment, tunicamycin treatment under similar conditions decreased radiolabeled D-glucosamine incorporation into proteins by 56.3±4.8% (mean±S.D.; n=3).

Thyroid Peroxidase (TPO) = assay: Assay of human TPO enzymatic activity (guaiacol and iodide peroxidase); type: biochemical; conditions: conditioned medium of transfected CHO cells, collected after 3 days of culture
Procedure: […] P., et al., Endocrinol. 116:1493-1500 (1985)). In later experiments, a more rapid method was used. Cells were suspended with a rubber scraper in 1.5 ml calcium-magnesium free Dulbecco's phosphate-buffered saline and protein determined on a 5 ul aliquot. […] […] One guaiacol unit is defined as a _A470 of 1.0 per minute which is equivalent to 150 nmols guaiacol oxidized per minute (Chance, B., et al., In Methods in Enzymology (Colonic. S. P., et al.), Academic Press, New York 2:164-[…] (1955)). One unit of iodide peroxidase is defined as a _A353 of 1.0 per minute which corresponds to 43 nmols I3-formed per minute (Magnusson, R. P., et al., J. Biol. Chem. 259:13783-13790 (1984)).

[13] = target: T1, recombinant human thyroid peroxidase (hTPO), full-length wild-type, expressed in CHO cells (human, UniProt P07202 19-933); assay: lectin affinity chromatography of 35S-labeled CHO-TPO extract, then immunoprecipitation
T1 construct: Used on intact CHO cells (FACS), as CHO microsomes (ELISA) and as non-denatured detergent extracts (non-reducing Western blot, immunoprecipitation); also called human TPO; thyroid microsomal antigen
T1 sequence: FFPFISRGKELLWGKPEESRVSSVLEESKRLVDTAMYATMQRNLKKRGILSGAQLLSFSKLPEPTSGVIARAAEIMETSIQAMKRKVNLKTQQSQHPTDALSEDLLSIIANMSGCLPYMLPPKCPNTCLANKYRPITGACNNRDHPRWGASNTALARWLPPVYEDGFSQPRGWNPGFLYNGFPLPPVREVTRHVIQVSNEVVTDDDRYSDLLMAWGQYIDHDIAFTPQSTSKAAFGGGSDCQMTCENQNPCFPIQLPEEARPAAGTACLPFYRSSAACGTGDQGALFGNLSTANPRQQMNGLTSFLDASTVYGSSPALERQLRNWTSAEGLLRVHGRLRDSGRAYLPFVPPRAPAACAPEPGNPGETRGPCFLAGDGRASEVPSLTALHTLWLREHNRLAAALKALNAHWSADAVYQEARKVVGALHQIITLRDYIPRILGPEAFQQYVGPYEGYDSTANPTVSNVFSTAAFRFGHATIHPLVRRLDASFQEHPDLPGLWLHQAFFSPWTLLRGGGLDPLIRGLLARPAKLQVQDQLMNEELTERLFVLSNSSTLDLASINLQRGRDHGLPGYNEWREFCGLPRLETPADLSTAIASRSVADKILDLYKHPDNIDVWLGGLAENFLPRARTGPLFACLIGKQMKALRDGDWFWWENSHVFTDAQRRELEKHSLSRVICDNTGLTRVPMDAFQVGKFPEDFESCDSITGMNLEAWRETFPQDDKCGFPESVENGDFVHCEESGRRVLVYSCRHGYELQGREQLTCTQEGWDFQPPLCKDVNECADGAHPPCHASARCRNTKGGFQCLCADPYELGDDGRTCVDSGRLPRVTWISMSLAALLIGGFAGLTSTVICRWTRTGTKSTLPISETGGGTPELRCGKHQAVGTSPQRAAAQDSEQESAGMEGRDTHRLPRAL
Procedure: After incubation overnight at 4° C., 150 µl of IgG-Sorb were added, and the tubes rotated end over end for 2–4 hours at room temperature. The IgG-Sorb was recovered by centrifugation for 5 minutes at 10,000× g, washed 5 times with 1 ml of immunoprecipitation buffer, and then once with 10 mM Tris, pH 7.5, 2 mM EDTA and 0.5% Na dodecylsufate. Finally, the pellet was resuspended in Laemmli sample buffer (31), with 50 mM dithiothreitol (DTT), boiled for 3 minutes, and applied to 6% polyacrylamide gels. […] Autoradiography was performed with Kodak XAR-5 film.
After application to the columns, the unbound proteins were removed by washing with 50 ml of the foregoing Buffer A's. […] Fractions of 0.5 ml were collected and counted for radioactivity in a liquid scintillation counter.

## human TPO-specific Fab fragment SP1.2
[1]
  % inhibition: 29%
[2]
  % inhibition: 77%
[3]
  % inhibition: 62%
[4]
  % inhibition: 14%
[5]
  Kd: 0.083 nM
[6]
  Kd: 0.08 nM
[7]
  % inhibition: 13%
[8]
  Kd: 0.06 nM and 0.08 nM
[9]
  Kd: 1 nM
[10]
  % inhibition: 12 to 18%
[11]
  mean % inhibition of serum autoantibody binding to 125I-TPO: 55%
[12]
  maximum % inhibition of serum autoantibody binding to 125I-TPO: 36 to 72%

## tunicamycin
CHO-TPO12b cells
  Decrease of radiolabeled D-glucosamine incorporation into proteins: 56.3±4.8%

B1: wild-type hTPO: full-length membrane-associated recombinant human TPO expressed in CHO cells (protein, UniProt P07202 1-933, looked up)
chain: MRALAVLSVTLVMACTEAFFPFISRGKELLWGKPEESRVSSVLEESKRLVDTAMYATMQRNLKKRGILSPAQLLSFSKLPEPTSGVIARAAEIMETSIQAMKRKVNLKTQQSQHPTDALSEDLLSIIANMSGCLPYMLPPKCPNTCLANKYRPITGACNNRDHPRWGASNTALARWLPPVYEDGFSQPRGWNPGFLYNGFPLPPVREVTRHVIQVSNEVVTDDDRYSDLLMAWGQYIDHDIAFTPQSTSKAAFGGGADCQMTCENQNPCFPIQLPEEARPAAGTACLPFYRSSAACGTGDQGALFGNLSTANPRQQMNGLTSFLDASTVYGSSPALERQLRNWTSAEGLLRVHARLRDSGRAYLPFVPPRAPAACAPEPGIPGETRGPCFLAGDGRASEVPSLTALHTLWLREHNRLAAALKALNAHWSADAVYQEARKVVGALHQIITLRDYIPRILGPEAFQQYVGPYEGYDSTANPTVSNVFSTAAFRFGHATIHPLVRRLDASFQEHPDLPGLWLHQAFFSPWTLLRGGGLDPLIRGLLARPAKLQVQDQLMNEELTERLFVLSNSSTLDLASINLQRGRDHGLPGYNEWREFCGLPRLETPADLSTAIASRSVADKILDLYKHPDNIDVWLGGLAENFLPRARTGPLFACLIGKQMKALRDGDWFWWENSHVFTDAQRRELEKHSLSRVICDNTGLTRVPMDAFQVGKFPEDFESCDSITGMNLEAWRETFPQDDKCGFPESVENGDFVHCEESGRRVLVYSCRHGYELQGREQLTCTQEGWDFQPPLCKDVNECADGAHPPCHASARCRNTKGGFQCLCADPYELGDDGRTCVDSGRLPRVTWISMSLAALLIGGFAGLTSTVICRWTRTGTKSTLPISETGGGTPELRCGKHQAVGTSPQRAAAQDSEQESAGMEGRDTHRLPRAL
modifications: full-length
notes: full-length membrane-associated recombinant human TPO expressed in CHO cells
Thyroid Peroxidase (TPO)
  TPO activity in culture medium: no detectable enzymatic activity

B2: Ulex europaeus lectin (agarose-bound) (other)
chain: SDDLSFKFKNFSQNGKDLSFQGDASVIETGVLQLNKVGNNLPDETGGIARYIAPIHIWNCNTGEVASFITSFSFFMETSANPKAATDGLTFFLAPPDSPLRRAGGYFGLFEDTKDNDSSYQTVAVEFDTIGSPVNFDDPGFPHIGIDVNRVKSINAERWNKRYGLNNVANVEIIYEASSKTLTASLTYPSDQTSISVTSIVDLKEILPEWVSVGFSGGTYIGRQATHEVLNWYFTSNLINTNS
modifications: Lectin immobilised on agarose beads. The native lectin is a glycosylated homodimer; one subunit is given.
notes: also called UEA-F
[13]
  binding result: no binding

B3: peanut agglutinin (agarose-bound lectin) (other, UniProt P02872 24-259, looked up)
chain: AETVSFNFNSFSEGNPAINFQGDVTVLSNGNIQLTNLNKVNSVGRVLYAMPVRIWSSATGNVASFLTSFSFEMKDIKDYDPADGIIFFIAPEDTQIPAGSIGGGTLGVSDTKGAGHFVGVEFDTYSNSEYNDPPTDHVGIDVNSVDSVKTVPWNSVSGAVVKVTVIYDSSTKTLSVAVTNDNGDITTIAQVVDLKAKLPERVKFGFSASGSLGGRQIHLIRSWSFTSTLITTTRRS
notes: also called PNA
[13]
  binding result: no binding

B4: mutated form of hTPO: truncated, secreted recombinant human TPO (848 amino acids) from CHO-TPO-M1-K1 cells (protein)
chain: FFPFISRGKELLWGKPEESRVSSVLEESKRLVDTAMYATMQRNLKKRGILSGAQLLSFSKLPEPTSGVIARAAEIMETSIQAMKRKVNLKTQQSQHPTDALSEDLLSIIANMSGCLPYMLPPKCPNTCLANKYRPITGACNNRDHPRWGASNTALARWLPPVYEDGFSQPRGWNPGFLYNGFPLPPVREVTRHVIQVSNEVVTDDDRYSDLLMAWGQYIDHDIAFTPQSTSKAAFGGGSDCQMTCENQNPCFPIQLPEEARPAAGTACLPFYRSSAACGTGDQGALFGNLSTANPRQQMNGLTSFLDASTVYGSSPALERQLRNWTSAEGLLRVHGRLRDSGRAYLPFVPPRAPAACAPEPGNPGETRGPCFLAGDGRASEVPSLTALHTLWLREHNRLAAALKALNAHWSADAVYQEARKVVGALHQIITLRDYIPRILGPEAFQQYVGPYEGYDSTANPTVSNVFSTAAFRFGHATIHPLVRRLDASFQEHPDLPGLWLHQAFFSPWTLLRGGGLDPLIRGLLARPAKLQVQDQLMNEELTERLFVLSNSSTLDLASINLQRGRDHGLPGYNEWREFCGLPRLETPADLSTAIASRSVADKILDLYKHPDNIDVWLGGLAENFLPRARTGPLFACLIGKQMKALRDGDWFWWENSHVFTDAQRRELEKHSLSRVICDNTGLTRVPMDAFQVGKFPEDFESCDSITGMNLEAWRETFPQDDKCGFPESVENGDFVHCEESGRRVLVYSCRHGYELQGREQLTCTQEGWDFQPPLCKDVNECADGAHPPCHASARCRNTKGGFQCLCADPYELGDDGRTCVDSGRLPRVT
Thyroid Peroxidase (TPO)
  TPO activity in culture medium: 1.0 guaiacol U/10 ml medium
